Key:
[1] = target: the molecule itself; experiment: AUC
[2] = target: the molecule itself; experiment: AUC; remark: listed apart in the source

Protein | stoichiometry N [1] | % tetramer [2]
Rhizobium etli pyruvate carboxylase R472S (enzyme, UniProt Q2K340 1-1154, looked up, covalently attached biotin prosthetic group on the BCCP domain) MPISKILVANRSEIAIRVFRAANELGIKTVAIWAEEDKLALHRFKADESYQVGRGPHLARDLGPIESYLSIDEVIRVAKLSGADAIHPGYGLLSESPEFVDACNKAGIIFIGPKADTMRQLGNKVAARNLAISVGVPVVPATEPLPDDMAEVAKMAAAIGYPVMLKASWGGGGRGMRVIRSEADLAKEVTEAKREAMAAFGKDEVYLEKLVERARHVESQILGDTHGNVVHLFERDCSVQRRNQKVVERAPAPYLSEAQRQELAAYSLKIAGATNYIGAGTVEYLMDADTGKFYFIEVNPRIQVEHTVTEVVTGIDIVKAQIHILDGAAIGTPQSGVPNQEDIRLNGHALQCRVTTEDPEHNFIPDYGRITAYRSASGFGIRLDGGTSYSGAIITRYYDPLLVKVTAWAPNPLEAISRMDRALREFRIRGVATNLTFLEAIIGHPKFRDNSYTTRFIDTTPELFQQVKRQDSATKLLTYLADVTVNGHPEAKDRPKPLENAARPVVPYANGNGVKDGTKQLLDTLGPKKFGEWMRNEKRVLLTDTTMRDGHQSLLATRMRTYDIARIAGTYSHALPNLLSLECWGGATFDVSMRFLTEDPWERLALIREGAPNLLLQMLLRGANGVGYTNYPDNVVKYFVRQAAKGGIDLFRVFDCLNWVENMRVSMDAIAEENKLCEAAICYTGDILNSARPKYDLKYYTNLAVELEKAGAHIIAVKDMAGLLKPAAAKVLFKALREATGLPIHFHTHDTSGIAAATVLAAVEAGVDAVDAAMDALSGNTSQPCLGSIVEALSGSERDPGLDPAWIRRISFYWEAVRNQYAAFESDLKGPASEVYLHEMPGGQFTNLKEQARSLGLETRWHQVAQAYADANQMFGDIVKVTPSSKVVGDMALMMVSQDLTVADVVSPDREVSFPESVVSMLKGDLGQPPSGWPEALQKKALKGEKPYTVRPGSLLKEADLDAERKVIEKKLEREVSDFEFASYLMYPKVFTDFALASDTYGPVSVLPTPAYFYGLADGEELFADIEKGKTLVIVNQAVSATDSQGMVTVFFELNGQPRRIKVPDRAHGATGAAVRRKAEPGNAAHVGAPMPGVISRVFVSSGQAVNAGDVLVSIEAMKMETAIHAEKDGTIAEVLVKAGDQIDAKDLLAVYGG | 4 | 72%
Rhizobium etli pyruvate carboxylase R472K (enzyme, UniProt Q2K340 1-1154, looked up, covalently attached biotin prosthetic group on the BCCP domain) MPISKILVANRSEIAIRVFRAANELGIKTVAIWAEEDKLALHRFKADESYQVGRGPHLARDLGPIESYLSIDEVIRVAKLSGADAIHPGYGLLSESPEFVDACNKAGIIFIGPKADTMRQLGNKVAARNLAISVGVPVVPATEPLPDDMAEVAKMAAAIGYPVMLKASWGGGGRGMRVIRSEADLAKEVTEAKREAMAAFGKDEVYLEKLVERARHVESQILGDTHGNVVHLFERDCSVQRRNQKVVERAPAPYLSEAQRQELAAYSLKIAGATNYIGAGTVEYLMDADTGKFYFIEVNPRIQVEHTVTEVVTGIDIVKAQIHILDGAAIGTPQSGVPNQEDIRLNGHALQCRVTTEDPEHNFIPDYGRITAYRSASGFGIRLDGGTSYSGAIITRYYDPLLVKVTAWAPNPLEAISRMDRALREFRIRGVATNLTFLEAIIGHPKFRDNSYTTRFIDTTPELFQQVKRQDKATKLLTYLADVTVNGHPEAKDRPKPLENAARPVVPYANGNGVKDGTKQLLDTLGPKKFGEWMRNEKRVLLTDTTMRDGHQSLLATRMRTYDIARIAGTYSHALPNLLSLECWGGATFDVSMRFLTEDPWERLALIREGAPNLLLQMLLRGANGVGYTNYPDNVVKYFVRQAAKGGIDLFRVFDCLNWVENMRVSMDAIAEENKLCEAAICYTGDILNSARPKYDLKYYTNLAVELEKAGAHIIAVKDMAGLLKPAAAKVLFKALREATGLPIHFHTHDTSGIAAATVLAAVEAGVDAVDAAMDALSGNTSQPCLGSIVEALSGSERDPGLDPAWIRRISFYWEAVRNQYAAFESDLKGPASEVYLHEMPGGQFTNLKEQARSLGLETRWHQVAQAYADANQMFGDIVKVTPSSKVVGDMALMMVSQDLTVADVVSPDREVSFPESVVSMLKGDLGQPPSGWPEALQKKALKGEKPYTVRPGSLLKEADLDAERKVIEKKLEREVSDFEFASYLMYPKVFTDFALASDTYGPVSVLPTPAYFYGLADGEELFADIEKGKTLVIVNQAVSATDSQGMVTVFFELNGQPRRIKVPDRAHGATGAAVRRKAEPGNAAHVGAPMPGVISRVFVSSGQAVNAGDVLVSIEAMKMETAIHAEKDGTIAEVLVKAGDQIDAKDLLAVYGG | 4 | 
Rhizobium etli pyruvate carboxylase R427K (enzyme, UniProt Q2K340 1-1154, looked up, covalently attached biotin prosthetic group on the BCCP domain) MPISKILVANRSEIAIRVFRAANELGIKTVAIWAEEDKLALHRFKADESYQVGRGPHLARDLGPIESYLSIDEVIRVAKLSGADAIHPGYGLLSESPEFVDACNKAGIIFIGPKADTMRQLGNKVAARNLAISVGVPVVPATEPLPDDMAEVAKMAAAIGYPVMLKASWGGGGRGMRVIRSEADLAKEVTEAKREAMAAFGKDEVYLEKLVERARHVESQILGDTHGNVVHLFERDCSVQRRNQKVVERAPAPYLSEAQRQELAAYSLKIAGATNYIGAGTVEYLMDADTGKFYFIEVNPRIQVEHTVTEVVTGIDIVKAQIHILDGAAIGTPQSGVPNQEDIRLNGHALQCRVTTEDPEHNFIPDYGRITAYRSASGFGIRLDGGTSYSGAIITRYYDPLLVKVTAWAPNPLEAISRMDRALREFKIRGVATNLTFLEAIIGHPKFRDNSYTTRFIDTTPELFQQVKRQDRATKLLTYLADVTVNGHPEAKDRPKPLENAARPVVPYANGNGVKDGTKQLLDTLGPKKFGEWMRNEKRVLLTDTTMRDGHQSLLATRMRTYDIARIAGTYSHALPNLLSLECWGGATFDVSMRFLTEDPWERLALIREGAPNLLLQMLLRGANGVGYTNYPDNVVKYFVRQAAKGGIDLFRVFDCLNWVENMRVSMDAIAEENKLCEAAICYTGDILNSARPKYDLKYYTNLAVELEKAGAHIIAVKDMAGLLKPAAAKVLFKALREATGLPIHFHTHDTSGIAAATVLAAVEAGVDAVDAAMDALSGNTSQPCLGSIVEALSGSERDPGLDPAWIRRISFYWEAVRNQYAAFESDLKGPASEVYLHEMPGGQFTNLKEQARSLGLETRWHQVAQAYADANQMFGDIVKVTPSSKVVGDMALMMVSQDLTVADVVSPDREVSFPESVVSMLKGDLGQPPSGWPEALQKKALKGEKPYTVRPGSLLKEADLDAERKVIEKKLEREVSDFEFASYLMYPKVFTDFALASDTYGPVSVLPTPAYFYGLADGEELFADIEKGKTLVIVNQAVSATDSQGMVTVFFELNGQPRRIKVPDRAHGATGAAVRRKAEPGNAAHVGAPMPGVISRVFVSSGQAVNAGDVLVSIEAMKMETAIHAEKDGTIAEVLVKAGDQIDAKDLLAVYGG | 4 | 75%
